Laboratory results reported in the RNAGym collection of RNA variant scans (doi:10.7554/elife.90254).

B1: OR4K15 (parent)
chain: GUUAACGGUCAUAGGCCAUGGAAACUAGGAGCACCAUUUCGCUGCCAGUGAAGAAAUGAACAAAGAAAAUCUGGGCCAGGCAGGCAUCAAAAGAAAUAGUCUUGCGCUCAACCAGAAAGUCUGUAAUCAUUUUAAGGGUA
B2: LINE1-full (parent)
chain: UACGUAGGUGGUUUUCCCCUGAUAGUGCUAAGGGGGCCUGGAAGUUUGGACUGGGCAGAGCUCAACACAGCGUGGCAAAGUGGCUGUGGCUAGACUGCCUCUCUGGAUUCCUCGUCACUCAGCAGGGCAUCUCUGAGAGAAAUGCC

Variants of: B1
Assay: self-cleavage, relative activity (ratio to wild type); higher = more cleavage; in vitro, sequencing; the parent is a self-cleaving ribozyme

Compared with U2A A129G, U2C A95G is higher in self-cleavage: 0.66 for the first, 1.53 for the second.

First: U2C A95U
Second: G1A A134G
The self-cleavage of the first is lower: 0.99 for the first, 1.75 for the second.

Compared with G1U A36G, U2A G104A is lower in self-cleavage: 1.26 for the first, 0.16 for the second.

Going from U2A A52G to G1A A92G, the self-cleavage rises from 0.8 to 1.66.

Going from U2C A33C to G1A A33G, the self-cleavage falls from 0.88 to 0.78.

Compared with U2A A18G, U2A A78G is lower in self-cleavage: 0.91 for the first, 0.46 for the second.

First: U2A A78C
Second: U2C A96G
The self-cleavage of the first is lower: 0.66 for the first, 1.1 for the second.

Going from G1A G137A to U2A U108C, the self-cleavage falls from 0.95 to 0.04.

Compared with U2C A51U, U2C A51G is higher in self-cleavage: 0.82 for the first, 0.84 for the second.

Going from U2A A23C to G1U A5G, the self-cleavage rises from 0.29 to 0.45.

First: G1A U132C
Second: G1A A18C
The self-cleavage of the first is lower: 0.94 for the first, 1.98 for the second.

First: G1A A18G
Second: U2C A13G
The self-cleavage of the first is higher: 1.58 for the first, 0.99 for the second.

First: U2C A23G
Second: G1A C40U
The self-cleavage of the first is lower: 1.01 for the first, 1.78 for the second.

Compared with U2C A82U, U2C A82G is higher in self-cleavage: 0.17 for the first, 0.55 for the second.

Compared with U2C A55G, U2C A55U is higher in self-cleavage: 1.15 for the first, 1.46 for the second.

Going from U2A U87A to G1A U122C, the self-cleavage falls from 1.32 to 0.48.

Going from G1A A111G to U2A A51U, the self-cleavage rises from 0.21 to 0.86.

Going from U2C A4G to U2C A111U, the self-cleavage falls from 0.87 to 0.27.

Going from U2A U102A to U2C A47G, the self-cleavage falls from 1.51 to 1.28.

Compared with U2C A47U, G1A A90G is lower in self-cleavage: 0.86 for the first, 0.26 for the second.

Compared with U2C A60U, U2A U43G is lower in self-cleavage: 1.67 for the first, 1.11 for the second.

Compared with U2C A69U, U2C A52U is lower in self-cleavage: 1.15 for the first, 0.38 for the second.

Going from G1A G138A to G1A U72C, the self-cleavage falls from 2.03 to 0.39.

Compared with U2C A78U, U2C A78C is higher in self-cleavage: 0.09 for the first, 0.4 for the second.

First: G1U A24G
Second: U2C A67U
The self-cleavage of the first is higher: 1.6 for the first, 0.85 for the second.

First: U2C A67G
Second: U2A A36U
The self-cleavage of the first is lower: 1.13 for the first, 1.18 for the second.

First: G1A A4G
Second: G1U A33U
The self-cleavage of the first is lower: 0.54 for the first, 1.75 for the second.

First: G1U A33G
Second: U2A C61U
The self-cleavage of the first is higher: 0.79 for the first, 0.71 for the second.

Going from G1U C105A to U2C A5G, the self-cleavage rises from 0.03 to 0.24.

First: G1A U49C
Second: U2C A92G
The self-cleavage of the first is higher: 1.35 for the first, 0.98 for the second.

First: G1A A95G
Second: U2C A30G
The self-cleavage of the first is higher: 2.4 for the first, 1.22 for the second.

Going from G1U U103C to U2A U127C, the self-cleavage falls from 1.59 to 1.08.

Going from U2C A54U to U2C A54G, the self-cleavage falls from 1.61 to 0.68.

First: U2A A110G
Second: U2A A5G
The self-cleavage of the first is lower: 0.16 for the first, 1.24 for the second.

Compared with U2A U100C, U2A A118G is higher in self-cleavage: 0.89 for the first, 0.95 for the second.

Compared with U2A A114G, U2C A68G is higher in self-cleavage: 0.67 for the first, 1.13 for the second.

First: U2C A64U
Second: U2A U3A
The self-cleavage of the first is higher: 1.3 for the first, 1.16 for the second.

Compared with U2C A86U, U2C A86G is lower in self-cleavage: 2.13 for the first, 0.95 for the second.

Going from U2C A110G to G1A A62C, the self-cleavage rises from 0.11 to 2.59.

Compared with G1A U9G, U2C A114C is lower in self-cleavage: 1.23 for the first, 0.03 for the second.

Going from U2A A22U to G1U U39A, the self-cleavage rises from 0.88 to 1.74.

First: U2A A135U
Second: U2C A24G
The self-cleavage of the first is lower: 0.96 for the first, 1.09 for the second.

Compared with U2C A98G, U2A C45A is higher in self-cleavage: 0.57 for the first, 1.82 for the second.

Compared with G1A U108C, U2C A89U is higher in self-cleavage: 0.05 for the first, 1.7 for the second.

First: U2C A89G
Second: U2A G14C
The self-cleavage of the first is lower: 0.63 for the first, 0.7 for the second.

Going from U2A to U2C, the self-cleavage rises from 0.8 to 0.88.

Going from G1U U87C to U2A A89U, the self-cleavage rises from 0.27 to 1.2.

Going from U2A A24C to U2A A24G, the self-cleavage falls from 0.96 to 0.54.

Compared with U2A U49C, U2A U132C is lower in self-cleavage: 1.68 for the first, 1.21 for the second.

Going from U2A A125U to U2C A66C, the self-cleavage falls from 2.08 to 0.66.

First: U2C A116U
Second: U2A G106A
The self-cleavage of the first is lower: 0 for the first, 0.06 for the second.

Going from U2C A117G to U2A C77U, the self-cleavage rises from 1.33 to 1.39.

Compared with U2C A22G, U2C A22U is higher in self-cleavage: 1.11 for the first, 1.51 for the second.

Compared with G1U A114G, U2A A96G is higher in self-cleavage: 0.33 for the first, 1.05 for the second.

First: U2A A86G
Second: U2C A125G
The self-cleavage of the first is higher: 1.46 for the first, 0.55 for the second.

Compared with G1A A82G, U2A U26C is lower in self-cleavage: 1.18 for the first, 0.99 for the second.

Variants of: B2
Assay: as above

First: U87C U91A
Second: A43U G49A
The self-cleavage of the first is lower: 0.2 for the first, 1.34 for the second.

Going from G7U G40A to U85C G139U, the self-cleavage falls from 1.47 to 0.22.

First: C3A U13C
Second: A50G A65U
The self-cleavage of the first is higher: 1.15 for the first, 0.24 for the second.

First: U5C A142G
Second: C38U A140G
The self-cleavage of the first is lower: 1.15 for the first, 1.24 for the second.

First: G106A A124U
Second: U45C A77U
The self-cleavage of the first is higher: 1.54 for the first, 1.29 for the second.

First: A42G G53A
Second: U13C A43C
The self-cleavage of the first is higher: 1.36 for the first, 0.84 for the second.

Going from U108C A124C to C66U U100C, the self-cleavage falls from 1.57 to 0.07.

Going from U9C U134G to C61U A65G, the self-cleavage falls from 0.63 to 0.06.

Compared with A43G A136C, U87C A142C is lower in self-cleavage: 1.18 for the first, 0.24 for the second.

First: U26C A57G
Second: G41U U134C
The self-cleavage of the first is lower: 1.14 for the first, 1.21 for the second.

Compared with U104C C113A, A50G G58C is lower in self-cleavage: 2.01 for the first, 0.11 for the second.

First: A64G G89U
Second: U102A C145U
The self-cleavage of the first is lower: 0 for the first, 1.04 for the second.

First: U29C U143A
Second: G8A G48A
The self-cleavage of the first is higher: 1.17 for the first, 0.44 for the second.

Going from A94U U132C to U5C C18A, the self-cleavage rises from 0.52 to 0.67.

Compared with C61U U115C, A92U G114U is higher in self-cleavage: 0.02 for the first, 0.67 for the second.

First: U104C G125A
Second: U9C A136U
The self-cleavage of the first is lower: 1.28 for the first, 1.3 for the second.

Going from G11A U46C to U46C U100C, the self-cleavage rises from 0.94 to 1.89.

First: C17U U20G
Second: A43G U143G
The self-cleavage of the first is lower: 0.57 for the first, 1.42 for the second.

Going from A65G A92C to U13C A30G, the self-cleavage rises from 0 to 0.77.

First: U100C U115C
Second: U9A U46C
The self-cleavage of the first is higher: 2.98 for the first, 0.98 for the second.

First: U81G U87A
Second: U23C U112C
The self-cleavage of the first is lower: 0.15 for the first, 1.57 for the second.

Going from U109C U115A to G40A A57G, the self-cleavage falls from 0.82 to 0.4.

Going from C71G A136G to G7A U9C, the self-cleavage rises from 0.28 to 0.68.

Compared with A50G G106A, G72U A77G is higher in self-cleavage: 1.41 for the first, 2.19 for the second.

Going from U14C C68A to U87A U132G, the self-cleavage rises from 0.09 to 0.1.

First: G126A U143A
Second: A129G U130C
The self-cleavage of the first is lower: 1.49 for the first, 1.69 for the second.

Going from A42G U100C to A22G G80A, the self-cleavage rises from 1.54 to 2.37.

In the case of A43U A140U, the self-cleavage is reported as 1.49.
